Experimental data published in patent US20220348651A1 (Novartis, published 2022).

T1: human ENTPD2 expressed on cells (human, UniProt Q9Y5L3 1-495)
T1 sequence: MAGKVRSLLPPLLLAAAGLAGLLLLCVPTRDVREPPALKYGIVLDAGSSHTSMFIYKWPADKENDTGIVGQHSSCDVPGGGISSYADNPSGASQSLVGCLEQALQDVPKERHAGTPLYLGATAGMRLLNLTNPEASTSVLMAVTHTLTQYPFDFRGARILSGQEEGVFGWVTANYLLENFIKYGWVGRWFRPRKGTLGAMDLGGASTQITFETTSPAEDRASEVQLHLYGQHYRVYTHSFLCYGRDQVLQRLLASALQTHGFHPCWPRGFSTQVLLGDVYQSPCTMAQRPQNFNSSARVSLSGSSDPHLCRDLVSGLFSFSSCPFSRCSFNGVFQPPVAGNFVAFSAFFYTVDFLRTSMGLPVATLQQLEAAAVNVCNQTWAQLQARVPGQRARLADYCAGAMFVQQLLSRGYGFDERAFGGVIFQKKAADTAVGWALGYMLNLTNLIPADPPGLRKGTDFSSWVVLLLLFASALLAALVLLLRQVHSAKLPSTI

T2: cyno ENTPD2 expressed on NIH/3T3 cells (cynomolgus macaque, UniProt Q9Y5L3 1-495 (human entry))
T2 chain: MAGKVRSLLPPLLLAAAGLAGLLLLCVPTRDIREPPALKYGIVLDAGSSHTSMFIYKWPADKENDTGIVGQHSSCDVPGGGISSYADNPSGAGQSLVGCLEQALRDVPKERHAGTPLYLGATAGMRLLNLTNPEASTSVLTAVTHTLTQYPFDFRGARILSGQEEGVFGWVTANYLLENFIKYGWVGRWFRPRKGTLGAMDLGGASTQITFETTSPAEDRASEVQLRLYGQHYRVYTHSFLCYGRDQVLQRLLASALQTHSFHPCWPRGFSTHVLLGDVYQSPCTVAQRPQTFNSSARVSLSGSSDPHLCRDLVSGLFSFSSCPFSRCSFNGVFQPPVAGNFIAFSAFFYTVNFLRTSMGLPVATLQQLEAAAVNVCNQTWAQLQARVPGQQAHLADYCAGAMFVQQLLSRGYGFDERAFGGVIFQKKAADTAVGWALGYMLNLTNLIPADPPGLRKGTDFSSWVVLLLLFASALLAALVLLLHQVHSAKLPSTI

T3: recombinant cyno ENTPD2 extracellular domain (residues 29-462) with C-terminal Avi-His6 tag (cynomolgus macaque, UniProt Q9Y5L3 29-462 (human entry))
T3 construct: also called cynomologus (cyno) ENTPD2 ECD
T3 chain (part 1 of 2): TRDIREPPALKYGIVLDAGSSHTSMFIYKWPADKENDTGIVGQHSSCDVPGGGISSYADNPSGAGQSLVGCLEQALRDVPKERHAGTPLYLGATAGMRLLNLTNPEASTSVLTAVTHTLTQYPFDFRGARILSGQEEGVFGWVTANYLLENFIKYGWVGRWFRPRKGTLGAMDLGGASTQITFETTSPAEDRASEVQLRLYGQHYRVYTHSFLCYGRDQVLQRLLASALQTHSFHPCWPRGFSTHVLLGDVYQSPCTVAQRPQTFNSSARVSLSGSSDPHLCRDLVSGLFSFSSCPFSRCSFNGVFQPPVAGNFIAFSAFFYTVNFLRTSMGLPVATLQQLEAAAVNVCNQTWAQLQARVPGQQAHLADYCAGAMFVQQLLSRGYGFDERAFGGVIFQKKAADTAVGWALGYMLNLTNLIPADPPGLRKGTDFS
T3 chain (part 2 of 2): HHHHHH

T4: Human ENTPD1 (NP_001767) expressed on NIH/3T3 cells (human, UniProt P49961 1-510)
T4 construct: also called NIH/3T3-ENTPD1; CD39
T4 sequence: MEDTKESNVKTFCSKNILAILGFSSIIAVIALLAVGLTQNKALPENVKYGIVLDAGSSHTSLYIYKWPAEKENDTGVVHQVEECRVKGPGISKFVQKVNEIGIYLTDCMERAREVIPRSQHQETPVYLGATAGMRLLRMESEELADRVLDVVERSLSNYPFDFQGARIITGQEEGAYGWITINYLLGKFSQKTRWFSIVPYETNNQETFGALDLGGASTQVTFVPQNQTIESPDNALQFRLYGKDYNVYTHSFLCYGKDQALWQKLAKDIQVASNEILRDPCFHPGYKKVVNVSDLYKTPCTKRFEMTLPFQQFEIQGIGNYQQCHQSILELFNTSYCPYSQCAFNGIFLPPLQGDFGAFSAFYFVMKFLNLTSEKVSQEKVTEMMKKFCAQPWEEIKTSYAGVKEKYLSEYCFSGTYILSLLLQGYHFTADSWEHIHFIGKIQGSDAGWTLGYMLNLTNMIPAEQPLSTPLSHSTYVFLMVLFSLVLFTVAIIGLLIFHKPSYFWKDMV


Columns and labels:
[1] = molecular target: T1, human ENTPD2 expressed on cells; test: cell-based or functional assay
[2] = molecular target: T2, cyno ENTPD2 expressed on NIH/3T3 cells; test: cell-based or functional assay
[3] = molecular target: T2, cyno ENTPD2 expressed on NIH/3T3 cells; test: flow cytometry, NIH3T3 cyno ENTPD2 cells
[4] = molecular target: T3, recombinant cyno ENTPD2 extracellular …; test: SPR Biacore, mAb captured, ECD analyte, 25C
Method: Biacore Screening: Affinity was measured by determining the kinetic rate constants using surface plasmon resonance (SPR) on a Biacore T200 or T100 with the T200 sensitivity upgrade instrument (Biacore, GE Healthcare). Antibodies were captured on CM5 sensor chips (Biacore, GE Healthcare) prepared with a mouse anti-human IgG Fc antibody (ThermoFisher catalogue #05-4200) amine coupled to the surface. […] ENTPD2 analytes were allowed to associate for 180 s and dissociate for up to 1800 s depending on the off-rate of the antibody at a flow rate of 30 μL/min. The running buffer was PBS pH 7.2 (prepared from a Corning 10X stock, cat#46-013-CM)+0.05% Tween 20. […] The raw data were analyzed using Biacore T200 Evaluation Software version 1.0 and fit to a 1:1 binding model, with all parameters set to fit globally except for RI, which was set to fit locally.

[5] = molecular target: T1, human ENTPD2 expressed on cells; test: flow cytometry, RKO cells (endogenous ENTPD2)
Method: FACS screening: Specific binding of candidate antibodies to endogenously expressed ENTPD2 was assessed by flow cytometry. […] Geometric mean fluorescence intensity was calculated on live single cells using FlowJo software.

[6] = molecular target: T4, Human ENTPD1 (NP_001767) expressed on …; test: flow cytometry, NIH/3T3-ENTPD1 cells

Row | % inhibition, Human ENTPD2 NIH/3T3 Assay [1] | % inhibition, RKO Assay [1] | IC50, Human ENTPD2 NIH/3T3 Assay [1] | IC50, RKO Assay [1] | % inhibition, Cyno ENTPD2 NIH/3T3 Assay [2] | IC50, Cyno ENTPD2 NIH/3T3 Assay [2] | EC50 [3] | Kd [4] | koff [4] | kon [4] | EC50 [5] | binding result [6] | Binder
1 | 97% | 95% | 0.1 nM | 0.2 nM | 96% | 0.9 nM | 2.1 nM | 81.1 nM | 0.024 s⁻¹ | 300000 M⁻¹ s⁻¹ | 0.3 nM | – | ANTI-HUMAN ENTPD2 MAB8 (antibody, human IgG1, lambda, V domains shown, also called Anti-ENTPD2 mAb8) VH: QVQLQQSGPGLVKPSQTLSLTCAISGDSVSSSSAAWNWIRQSPSRGLEWLGRIYYRSKWYNDYAVSVKSRITINPDTSKNQFSLQLNSVTPEDTAVYYCARGSYVTSSYEGFDYWGQGTLVTVSS VL: SYELTQPLSVSVALGQTARITCSGDNLPEKYAYWYQQKPGQAPVLVIYDDNKRPSGIPERFSGSNSGNTATLTISRAQAGDEADYYCQSYGKWGWTWVFGGGTKLTVLG
2 | 95% | 92% | 0.8 nM | 0.6 nM | 82% | 2.7 nM | 0.8 nM | 1.1 nM | 0.0012 s⁻¹ | 1.2e+06 M⁻¹ s⁻¹ | 0.4 nM | no binding (tested: 50 nM) | ANTI-HUMAN ENTPD2 MAB7 (antibody, human IgG1, kappa, humanized from mAb17; human IgG1, kappa; also called Anti-ENTPD2 mAb7) heavy: not shown light: EIVLTQSPATLSASPGEEITLSCSASSSVSYIHWYQQKPGQAPRLLIYSTSNLASGIPARFSGSGSGTFYTLTISSVEPEDAAVYYCHQWSSYPWTFGGGTKLEIKRTVAAPSVFIFPPSDEQLKSGTASVVCLLNNFYPREAKVQWKVDNALQSGNSQESVTEQDSKDSTYSLSSTLTLSKADYEKHKVYACEVTHQGLSSPVTKSFNRGEC

More lines, now with the values behind:

Row | Binder | % inhibition, Human ENTPD2 NIH/3T3 Assay [1] | % inhibition, RKO Assay [1] | IC50, Human ENTPD2 NIH/3T3 Assay [1] | IC50, RKO Assay [1] | % inhibition, Cyno ENTPD2 NIH/3T3 Assay [2] | IC50, Cyno ENTPD2 NIH/3T3 Assay [2] | EC50 [3] | Kd [4] | koff [4] | kon [4] | EC50 [5] | binding result [6]
3 | ANTI-HUMAN ENTPD2 MAB2 (antibody, human IgG1, kappa, humanized from mAb17; human IgG1, kappa; also called Anti-ENTPD2 mAb2) heavy: not shown light: EIVLTQSPATLSASPGERITLSCSASSSVSYIHWYQQKPGQAPRLLIYSTSNLASGIPARFSGSGSGTFYTLTISSVEPEDAAVYYCHQWSSYPWTFGGGTKLEIKRTVAAPSVFIFPPSDEQLKSGTASVVCLLNNFYPREAKVQWKVDNALQSGNSQESVTEQDSKDSTYSLSSTLTLSKADYEKHKVYACEVTHQGLSSPVTKSFNRGEC | 98% | 86% | 1.4 nM | 0.8 nM | 84% | 2.7 nM | 4.2 nM | 2.8 nM | 0.0012 s⁻¹ | 430000 M⁻¹ s⁻¹ | 1.3 nM | no binding (tested: 50 nM)
4 | ANTI-HUMAN ENTPD2 MAB3 (antibody, human IgG1, kappa, V domains shown, humanized from mAb17; human IgG1, kappa; also called Anti-ENTPD2 mAb3) VH: QVQLVQSGAEVVKPGASVKISCKASGYTFTDYNMDWVKQAPGQRLEWIGDINPKYDISTYNQQFKGKATITVDTSASTAYMELSSLRSEDTAVYYCARRGFFLYYGINYYYFDVWGQGTLVTVSS VL: EIVLTQSPATLSASPGERITLSCSASSSVSYIHWYQQKPGQAPRLLIYSTSNLASGIPARFSGSGSGTFYTLTISSVEPEDAAVYYCHQWSSYPWTFGGGTKLEIKR | 91% | 95% | 1.8 nM | 1.6 nM | 84% | 5.8 nM | 5.4 nM | 2.2 nM | 0.00098 s⁻¹ | 450000 M⁻¹ s⁻¹ | 2.1 nM | no binding (tested: 50 nM)
5 | ANTI-HUMAN ENTPD2 MAB1 (antibody, human IgG1, kappa, humanized from mAb17; human IgG1, kappa; also called anti-ENTPD2 mAb1) heavy: not shown light: DIQLTQSPSSLSASVGDRVTITCSASSSVSYIHWFQQKPGKAPKLLIYSTSNLASGVPSRFSGSGSGTFFTLTISSLQPEDFATYFCHQWSSYPWTFGQGTKVEIKRTVAAPSVFIFPPSDEQLKSGTASVVCLLNNFYPREAKVQWKVDNALQSGNSQESVTEQDSKDSTYSLSSTLTLSKADYEKHKVYACEVTHQGLSSPVTKSFNRGEC | 92% | 97% | 1.1 nM | 0.8 nM | 91% | 4.1 nM | 3.3 nM | 3.4 nM | 0.0012 s⁻¹ | 360000 M⁻¹ s⁻¹ | 0.9 nM | no binding (tested: 50 nM)
6 | ANTI-HUMAN ENTPD2 MAB4 (antibody, human IgG1, kappa, V domains shown, humanized and optimized from mAb16; human IgG1, kappa; also called Anti-ENTPD2 mAb4) VH: QIQLQESGPGLVKPSQTLSLTCTVSGYSITSGYYWNWIRQHPGKGLEWIGYISYDADNNYNPSLKNRVTISRDTSKNQFSLKLSSVTAADTAVYYCAGGYYRYGLGSYRGSYYYVMDYWGQGTTVTVSS VL: ETVLTQSPATLSVSPGERATISCKASQSVDYEGHSYMNWYQQKPGQAPRLLIYAASNLESGIPARFSGSGSGTDFTLTISSVEPEDAATYYCQQSNEDPPTFGGGTKLEIKR | 87% | 74% | 0.2 nM | 0.2 nM | 75% | 2.2 nM | 6.1 nM | 42.1 nM | 0.0057 s⁻¹ | 140000 M⁻¹ s⁻¹ | 0.5 nM | no binding (tested: 50 nM)
7 | ANTI-HUMAN ENTPD2 MAB5 (antibody, human IgG1, kappa, V domains shown, humanized and optimized from mAb16; human IgG1, kappa; also called Anti-ENTPD2 mAb5) VH: QIQLQESGPGLVKPSQTLSLTCTVSGYSITSGYYWNWIRQHPGKGLEWIGYISYDADNNYNPSLKNRVTISRDTSKNQFSLKLSSVTAADTAVYYCAGGYYRYGLGSYRGSYYYVMDYWGQGTTVTVSS VL: ETVLTQSPATLSVSPGERATISCKASQSVDYDGNSYMNWYQQKPGQAPRLLIYAASNLESGIPARFSGSGSGTDFTLTISSVEPEDAATYYCQQSNEDPPTFGGGTKLEIKR | 95% | 80% | 0.3 nM | 0.2 nM | 80% | 1.5 nM | 5.2 nM | 10.7 nM | 0.003 s⁻¹ | 290000 M⁻¹ s⁻¹ | 0.4 nM | no binding (tested: 50 nM)
